Data as given in US6596504B2, “Treatment of prophylaxis of diseases caused by pilus-forming bacteria” (Washington University, priority 1993, dated 2003).
“Also recorded” adds a separate entry of the source.

Tests used:
PapD [1] = biological target: T1, PapD (Escherichia coli, UniProt P15319); test: ELISA: PapD binding to peptides coated on microtiter wells; design: species or system E. coli; conditions: for binding of PapD to immobilized peptide: peptide coated on microtiter wells, ELISA with anti-PapD antiserum; for reduction of binding of PapD to the immobilized peptide: compared with G1′-19′WT peptide
T1 construct: (A) NAME/KEY: mat_; made in house; Lindberg et al. 1989
T1 sequence (P15319 22-239): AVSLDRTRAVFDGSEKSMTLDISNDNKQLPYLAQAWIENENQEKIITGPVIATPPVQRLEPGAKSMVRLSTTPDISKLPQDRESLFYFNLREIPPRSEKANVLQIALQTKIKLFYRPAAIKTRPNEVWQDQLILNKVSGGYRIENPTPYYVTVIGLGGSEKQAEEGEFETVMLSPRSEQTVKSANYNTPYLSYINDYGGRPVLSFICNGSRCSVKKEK
Method: FIG. 1: PapD binds to pilus subunit-related peptides coated in ELISA microtiter plates and in solution. A and B: The peptides from Table 1 were coated on microtiter wells and tested for their ability to bind to PapD in an ELISA assay described in example 2. Water insoluble peptides were dissolved in 2.5% acetic acid (AA) which had no effect on the binding of G1′-19′WT to PapD in this assay. Each group represents the average of duplicate wells.
5 mg/ml stock solutions of peptides in water or 50% acetic acid were diluted to a concentration of 2.5 pmol/50 μl in PBS. 50 μl of the peptide solution was coated overnight onto microtiter wells (Nunc-Immuno Plate Maxisorp) at 4° C. The solutions in the plates were discarded, and the wells were blocked with 200 μl 3% bovine serum albumin (BSA, Sigma) in PBS (120 mM NaCl/2.7 mM KCl/10 mM phosphate buffer salts, pH 7.4) for 2 hours at 25° C. The plates were washed vigorously 3 times with PBS and incubated with 50 μl of the indicated amount of purified PapD (Lindberg et al, 1989). After 3 washes with PBS, the wells were incubated with a 1:500 dilution of anti-PapD rabbit antiserum (Lindberg et al, 1989) in 3% BSA/PBS for 45 min. at 25° C. After 3 washes with PBS, the wells were incubated with a 1:1000 dilution of goat anti-rabbit IgG coupled to alkaline phosphatase (Sigma) in 3% BSA/PBS for 45 min. at 25° C. Following 3 washes with PBS and 3 washes with developing buffer (10 mM diethanolamine pH 9.5, 0,5 MM MgCl2), 50 μl filtered p-nitrophenyl phosphate substrate (Sigma) in developing buffer (10 mg/ml) was added. The absorbance at 405 nm was read after 60 min of incubation in the dark at 25° C.

PapD [2] = biological target: T1, PapD; test: Protection of PapD against trypsin cleavage by peptides; type: biochemical, E. coli; conditions: preincubation with 20-fold molar excess of peptide
Method: A Lower: The rate of trypsin cleavage of PapD decreased upon preincubation with the G1′-19′WT, G1′-16′WT or K1′-19′WT peptides, but the G2′-21′amide peptide had no effect. 50 μg of purified PapD was preincubated for 15 min at 25° C. with a 20-fold molar excess of G1′-19′WT, G1′-16′WT, K1′-19′WT or G2′-21′amide peptides (any trypsin cleavage sites in these peptides occur at their amino termini where they were predicted not to interfere with PapD), or an equivalent volume of water. Each sample was then incubated at 37° C. with 3.2 μg of trypsin. Aliquots were removed after 0, 5, 10, 20, 30 and 40 min and boiled in SDS-PAGE sample buffer to stop the digestion. The samples were applied to 15% SDS-PAGE gels and the amount of full-length PapD remaining was determined by densitometry of Coomassie blue stained bands corresponding to full-length PapD which are shown.
400 μg of PapD was partially digested by incubation with either 4,5μg trypsin or 0.45 μg chymotrypsin on PBS for 20 min. at 37° C. The PapD digests were applied to a C-18 HPLC column (Beckman) and 2 major fragments were eluted with a 0-100% acetonitrile gradient in 0.01% trifluoroacetic acid. The PapD fragments were identified by their molecular weight on SDS-PAGE and amino-terminal sequencing. The N-terminal amino acid sequences of the approximately 14 kDa tryptic and chymotryptic fragments were identified as residues 100-108 and 104-109 of PapD, respectively, corresponding to cleavage after Lys-99 (for trypsin) and Leu-103 (for chymotrypsin). The N-terminal sequences of the 11 and 12 kDa bands in the digests were identical to the N-terminal sequence of PapD.

PapD-PapG complex = biological target: T2, PapD-PapG complex (Escherichia coli, UniProt P15319); test: Reconstitution assay: restoration of PapD-PapG complex from reduced, denatured PapD-PapG; type: binding, E. coli; conditions: PapD preincubated with peptide
T2 construct: (A) NAME/KEY: mat_; made in house
T2 sequence (P15319 22-239): T1 sequence (P15319 22-239)
Method: B: PapD incubated with the G1′-19′WT, G1′-16′WT, K1′-19′WT, and G2′-21′amide was added to reduced, denatured PapD-PapG and the amount of PapD-PapG complex restored in each sample was quantitated as described in example 2. The % inhibition represents the amount of the PapD-PapG complex restored with peptide-treated PapD compared to the amount of PapD-PapG complex restored with untreated PapD. The graph represent the average of 4 experiments. PapD and PapD-PapG complex were prepared as described in F. Lindberg et al, J. Bacteriol. 171, 6052 (1989) and S. J. Hultgren et al., Proc. Natl. Acad. Sci. USA 86, 4357 (1989).
FIG. 7: Ability of PapD Arg-8, Lys-112 and Thr-7 mutants to bind PapG and restore the PapD-PapG complex in vitro. 0.4 μg of PapD-PapG complex was reduced and denatured as described in FIG. 2B. The denatured PapD-PapG complex was then diluted with 0-630 ng purified wild type (WT) or mutant PapD. The amount of PapD-PapG restored in the samples was determined as in FIG. 2B and was graphed as a percentage of the greatest amount of PapD-PapG restored. The values graphed represent the average of 3 experiments. Wild type and mutant PapD and the PapD-PapG complex were purified as described in F. Lindberg et al, J. Bacteriol. 171, 6052 (1989) and S. J. Hultgren et al., Proc. Natl. Acad. Sci. USA 86, 4357 (1989).
The PapD-peptide solution was then added to the reduced, denatured PapD-PapG, incubated at 25° C. for 10 min, and applied to an IEF 3-9 gel (Pharmacia). The amount of PapD-PapG restored in each sample was quantitated by densitometry of the silver stained IEF band corresponding to the pI of the DG complex.

PapD [3] = biological target: T1, PapD; test: ELISA: inhibition by peptides of PapD binding to MBP-G1′-140′ fusion protein; design: species or system E. coli; conditions: PapD preincubated with peptide at 1:25 ratio; preliminary results
Method: Stock solutions of MBP-G1′-140′ proteins in PBS were diluted to 0.1 μM with PBS. The wells of microtiter plates were coated with 50 μl of the protein solutions overnight at 4° C. The wells were washed with PBS, and blocked with 200 μl of 3bovine serum albumin (BSA) in PBS for 2 hours at 25° C. The plates were washed vigorously three times with PBS and incubated with 50 μl of 1-5 μM PapD proteins in […]-PBS for 45 minutes at 25° C. The PapD was preincubated with each of the peptides at a 1:25 ratio for 30 min before being added to the wells. After three washings with PBS, the wells were incubated with a 1:500 dilution of rabbit anti-PapD antiserum in BSA-PBS for 45 minutes at 25° C. After three washings with PBS, the wells were incubated with a 1:1000 dilution of goat antiserum to rabbit IgG coupled to alkaline phosphatase in 3BSA-PBS for 45 minutes at 25° C. After three washings with PBS and three washings with developing buffer (10 mM diethanolamine, 0.5 mM MgCl2), 50 μl filtered 1 mg/ml p-nitrophenyl phosphate in developing buffer was added, the reaction was incubated for 1 hour or longer if necessary in the dark at 25° C., and the absorbance at 405 nm was read.

PapD [4] = biological target: T1, PapD; test: Soluble inhibition ELISA: PapD binding to G1′-19′WT-coated wells; design: species or system E. coli; conditions: 25-fold molar excess of peptide, 100 pmol/well PapD, compared to water
Method: Microtiter wells were coated overnight at 4° C. with 50 μl of 2,5 pmol/50 μl of the G1′-19′WT peptide. The wells were washed with PBS and blocked with 3% bovine serum albumin (BSA). A 25-fold molar excess of each test peptide was pre-incubated with 100 pmoles PapD for 30 min. and the PapD-peptide solution was then added to the coated wells and incubated at 25° C. for 45 min in the presence of 3% BSA/PBS. The subsequent primary antibody, secondary antibody and developing steps are described above. The ability of the peptides to inhibit binding of PapD to the G1′-19′WT peptide was calculated by dividing the amount of PapD binding in the presence of peptide with the amount of PapD binding in the presence of water. 0% inhibition includes values where binding was greater than that of PapD pre-incubated with H2O.

[5] = Water solubility of peptides; type: physicochemical

Substance | binding of PapD to immobilized peptide (PapD [1]) | inhibitory power on binding of PapD to MBP-G1′-140′ (PapD [3]) | also measured
NH2-GILNGGDFQTTASMAMIYN-COOH (H-GILNGGDFQTTASMAMIYN-OH) [F1′-19′WT] | moderately |  | 
NH2-GKRKPGELSGSMTMVLSFP-CONH2 (H-GKRKPGELSGSMTMVLSFP-NH2) [G1′-19′ amide] | did not affect binding to PapD |  | 
NH2-KSVVPGDYEATATFELTYR-COOH (H-KSVVPGDYEATATFELTYR-OH) [K1′-19′WT] | tight binding |  | binding of PapD to immobilized peptide (PapD [1]; listed as PapK): moderately; rate of trypsin cleavage of PapD (PapD [2]): decreased; also recorded: reduced the rate of tryptic cleavage of PapD; inhibition of restoration of the PapD-PapG complex by PapD (PapD-PapG complex): inhibit restoration of the PapD-PapG complex
H-SGSMTMVLSFP-OH [G1′-11′WT, NH2-SGSMTMVLSFP-COOH] | binds | significantly more potent | 
G1′-4′: 4 C-terminal amino acid residues of PapG (numbering of b394) (LSFP) |  |  | % Inhibition (PapD [4]): 0%
H-TMVLSFP-OH [G1′-7′WT, NH2-TMVLSFP-COOH] | does not bind | less active inhibitory peptides | solubility [5]: limited solubility
NH2-KPGELSGSMTMVLSFP-COOH (H-KPGELSGSMTMVLSFP-OH) [G1′-16′WT] | binds | significantly more potent | rate of trypsin cleavage of PapD (PapD [2]): decreased; also recorded: reduced the rate of tryptic cleavage of PapD; inhibition of restoration of the PapD-PapG complex by PapD (PapD-PapG complex): inhibit restoration of the PapD-PapG complex
H-QNLIAGPFSATATLVASYS-OH [E1′-19′WT, NH2-QNLIAGPFSATATLVASYS-COOH] | moderately |  | 
NH2-EEGKRKPGELSGSMTMVLSF-CONH2 (H-EEGKRKPGELSGSMTMVLSF-NH2) [G2′-21′amide] | reduced binding of PapD |  | reduction of binding of PapD to the immobilized peptide (PapD [1]): approximately 75%; % Inhibition (PapD [4]): 0%; rate of trypsin cleavage of PapD (PapD [2]): had no effect and not; inhibition of restoration of the PapD-PapG complex by PapD (PapD-PapG complex): has no effect
NH2-YALAPNAVIPTSLALL-COOH (H-YALAPNAVIPTSLALL-OH) [MS, random hydrophobic peptide, reference compound] | no binding |  | % Inhibition (PapD [4]): 1%
NH2-GKRKPGELSGSMTMVLSFP-COOH (H-GKRKPGELSGSMTMVLSFP-OH) [G1′-19′WT] | bound well |  | rate of trypsin cleavage of PapD (PapD [2]): decreased; also recorded: reduced the rate of tryptic cleavage of PapD; inhibition of restoration of the PapD-PapG complex by PapD (PapD-PapG complex): inhibit restoration of the PapD-PapG complex
NH2-KKLEAGNYFAVLGFRVDYE-COOH (H-KKLEAGNYFAVLGFRVDYE-OH) [H1′-19′ WT] | no binding |  | 
G1′-8′: octameric peptide from the C-terminus of PapG (MTMVLSFP) |  | significantly higher inhibitive effect; also recorded: significantly more potent | 
G1′-6′: length series of peptides from the C-terminus of PapG, 6 residues (MVLSFP) |  | less active inhibitory peptides | 
NH2-GKRKPVELSGSMTMVLSSP-COOH (H-GKRKPVELSGSMTMVLSSP-OH) [G1′-19′SV] |  |  | reduction of binding of PapD to the immobilized peptide (PapD [1]): 36%
